Legend:
[1] = target: T1, REST-FL (human, UniProt Q13127 1-1097); experiment: fluorescence anisotropy
T1 sequence: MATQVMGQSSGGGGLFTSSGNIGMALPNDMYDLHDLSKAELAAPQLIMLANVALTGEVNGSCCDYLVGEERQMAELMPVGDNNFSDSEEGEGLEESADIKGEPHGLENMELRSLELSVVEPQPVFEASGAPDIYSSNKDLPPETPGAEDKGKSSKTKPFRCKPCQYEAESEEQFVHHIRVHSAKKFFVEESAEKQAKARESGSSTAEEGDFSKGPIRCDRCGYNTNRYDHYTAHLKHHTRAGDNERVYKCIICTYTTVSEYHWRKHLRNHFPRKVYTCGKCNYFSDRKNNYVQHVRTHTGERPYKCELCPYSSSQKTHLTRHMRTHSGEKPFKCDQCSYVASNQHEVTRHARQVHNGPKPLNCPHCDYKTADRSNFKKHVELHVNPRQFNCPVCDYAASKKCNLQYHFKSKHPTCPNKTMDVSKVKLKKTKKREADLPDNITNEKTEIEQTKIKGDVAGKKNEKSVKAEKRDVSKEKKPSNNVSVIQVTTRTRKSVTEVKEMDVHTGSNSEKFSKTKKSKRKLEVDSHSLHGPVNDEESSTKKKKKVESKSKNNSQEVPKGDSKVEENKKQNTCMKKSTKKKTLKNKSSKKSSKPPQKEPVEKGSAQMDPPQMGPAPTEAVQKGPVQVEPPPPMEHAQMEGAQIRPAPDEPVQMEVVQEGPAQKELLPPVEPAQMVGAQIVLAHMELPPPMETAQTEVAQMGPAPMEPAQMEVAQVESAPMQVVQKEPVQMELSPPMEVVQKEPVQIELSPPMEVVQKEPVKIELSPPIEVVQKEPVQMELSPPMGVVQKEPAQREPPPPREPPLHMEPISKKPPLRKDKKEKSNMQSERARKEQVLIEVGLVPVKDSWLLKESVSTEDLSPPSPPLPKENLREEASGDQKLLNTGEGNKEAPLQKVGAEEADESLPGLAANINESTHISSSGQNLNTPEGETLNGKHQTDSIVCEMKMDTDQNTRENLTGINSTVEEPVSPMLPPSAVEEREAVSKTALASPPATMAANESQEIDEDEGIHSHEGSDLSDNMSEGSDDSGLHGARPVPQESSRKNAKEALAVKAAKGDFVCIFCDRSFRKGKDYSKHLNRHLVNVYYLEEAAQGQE

[2] = target: T2, REST-N62 (REST4-S3) (human, UniProt A0A087X1C2 1-340); experiment: fluorescence anisotropy
T2 sequence: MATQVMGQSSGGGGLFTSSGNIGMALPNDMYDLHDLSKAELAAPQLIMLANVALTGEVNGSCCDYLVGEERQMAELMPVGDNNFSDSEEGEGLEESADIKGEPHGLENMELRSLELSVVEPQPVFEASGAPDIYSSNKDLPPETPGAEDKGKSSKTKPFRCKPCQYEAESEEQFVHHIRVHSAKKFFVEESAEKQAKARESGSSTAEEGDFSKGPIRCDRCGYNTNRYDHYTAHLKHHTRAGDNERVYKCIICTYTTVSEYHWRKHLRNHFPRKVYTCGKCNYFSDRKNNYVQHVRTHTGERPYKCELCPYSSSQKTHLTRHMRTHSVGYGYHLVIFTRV

B1: NRSE (RE1) 21 bp duplex (dsDNA)
DNA 1: TTCAGCACCATGGACAGCGCC
DNA 2: GGCGCTGTCCATGGTGCTGAA
With B1 the Kd [1] was 5.7 ± 0.6 nM and the binding result [2] was “no binding”.

Reference: publication PMC9860152
